Reference: publication PMC4107485

Tests used:
Test in all cases: EMSA
[1] = tested on: T1, BaeR (Erwinia amylovora Ea1189), ORF:3df56c72
T1 sequence: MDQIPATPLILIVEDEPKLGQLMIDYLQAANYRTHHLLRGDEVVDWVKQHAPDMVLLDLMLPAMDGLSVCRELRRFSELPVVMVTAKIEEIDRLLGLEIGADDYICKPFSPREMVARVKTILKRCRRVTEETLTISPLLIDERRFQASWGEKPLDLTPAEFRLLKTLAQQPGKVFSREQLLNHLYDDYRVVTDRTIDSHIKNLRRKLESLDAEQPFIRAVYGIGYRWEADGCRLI

[2] = target: T2, CpxR (Erwinia amylovora Ea1189) (UniProt A0ABX7MGR0)
T2 sequence: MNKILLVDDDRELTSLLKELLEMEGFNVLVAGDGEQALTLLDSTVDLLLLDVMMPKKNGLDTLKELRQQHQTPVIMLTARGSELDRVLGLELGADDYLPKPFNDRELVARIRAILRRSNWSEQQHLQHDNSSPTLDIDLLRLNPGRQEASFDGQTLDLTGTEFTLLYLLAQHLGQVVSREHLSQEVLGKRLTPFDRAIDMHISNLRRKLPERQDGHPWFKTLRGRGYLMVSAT

[3] = tested on: BaeR, acetyl phosphate treated (Erwinia amylovora Ea1189)

## TCTACGGTCACGGTTAAGAAACCGCGTCGTCTTTTGCGCCGTCAGCTGCAGATCACCACGCGTATGCGTGGTTTTTTTGGCGCTATTTCATGGCGATAACATATATTAAATCTCGCATTTCTTACGGAATTCTTACGCTGCCAGCATGGAACGCCAGCAGATAAGCTAAGATAATATGCTTAACTACCCACCACCTTTGGACGGGTAAGGGGCTAAAGCCATGCCCTTTACGCCGGGTTTTTGCGCGCCGGGGATTATCCTGTCGGGTGTTGTTTA (double strand) [mdtUVW upstream region]
[1]
  binding: no binding
[2]
  binding: no binding

## TGATTCTCCTGATTGATAAGTGGATAACGCAGCTGATAAGACTGGCAAACAGCGTTGCATGCGCTGCGTTGATTTGTAGCATACCATTTGCCAATACTAAATTTTCTCACCGTAGCAGCTCTTATTTAAGCCGTTATCCTTATTTCCTTCATTTTTCAGCGCCTGAAATTCGCTATCCTTGCCAGCCTGGGGGCAAGCCCTAATCCCGCCCCGCGCCCTGCTTTAATTTCACGGAGAGTAGCACCCAGGATGAAAACACCCCGACGTTTCCCCCTTATCGCCTTGACGGT (double strand) [mdtABC upstream region]
[1]
  binding: binds
[2]
  binding: no binding

## mdtABC upstream region
[3]
  binding signal (fold binding vs unphosphorylated BaeR): 2
